Data published in article PMC5427921, “PRL3 phosphatase active site is required for binding the putative magnesium transporter CNNM3” (Scientific Reports, 2017).
One block for each substance: values may come before it.

Legend:
[1] = target: CNNM2 CBS-pair domain (Homo sapiens) (UniProt Q9H8M5); conditions: cited from earlier work
[2] = target: CNNM3 CBS-pair domain (Homo sapiens) (UniProt Q8NE01); conditions: cited from earlier work
[3] = target: CNNM3 CBS-pair domain as a GST fusion (human) (UniProt Q8NE01); assay: ITC; syringe 160 μM PRL2 or PRL3, cell 16 μM CNNM3 CBS-pair domain as a GST fusion; 22 °C; 30 injections of 10 μl; fitted to a single set of identical sites
Sequence of CNNM3 CBS-pair domain as a GST fusion (human) (Q8NE01 309-452): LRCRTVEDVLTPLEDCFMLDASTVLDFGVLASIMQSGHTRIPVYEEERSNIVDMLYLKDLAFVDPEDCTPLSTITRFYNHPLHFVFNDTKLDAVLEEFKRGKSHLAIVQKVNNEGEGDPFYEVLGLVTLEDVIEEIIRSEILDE

Sequence of CNNM3 CBS-pair domain (Homo sapiens) (Q8NE01 309-452): as above
Sequence of CNNM2 CBS-pair domain (Homo sapiens) (Q9H8M5 429-584): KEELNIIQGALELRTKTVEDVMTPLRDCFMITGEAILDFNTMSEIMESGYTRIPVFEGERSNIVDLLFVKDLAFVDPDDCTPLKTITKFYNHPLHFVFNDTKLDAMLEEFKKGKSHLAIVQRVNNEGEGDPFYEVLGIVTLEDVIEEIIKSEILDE
Sequence of PRL1 (Q93096 1-170): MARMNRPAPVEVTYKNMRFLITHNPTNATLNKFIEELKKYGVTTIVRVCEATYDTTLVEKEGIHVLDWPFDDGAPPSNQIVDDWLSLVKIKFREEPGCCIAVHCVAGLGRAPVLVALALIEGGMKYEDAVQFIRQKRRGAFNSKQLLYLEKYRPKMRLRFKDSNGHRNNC
Sequence of PRL2 (Q12974 1-164): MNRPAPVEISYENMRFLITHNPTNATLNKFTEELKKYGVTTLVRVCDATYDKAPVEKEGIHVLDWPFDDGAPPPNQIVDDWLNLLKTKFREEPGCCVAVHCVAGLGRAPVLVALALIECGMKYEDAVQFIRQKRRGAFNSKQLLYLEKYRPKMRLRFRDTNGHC

Substance: PRL1 (from UniProt Q93096)
Kd [1]: 0.64 µM

Substance: PRL2 (from UniProt Q12974)
Kd [2]: 0.025 µM

dH [3]: -16.6 kcal/mol | stoichiometry N [3]: 1.02
Substance: PRL2 phosphatase (as used in ITC) (from UniProt Q12974 1-167) (enzyme)
